Results from paper PMC7588454, “Osteopontin binds ICOSL promoting tumor metastasis” (Communications Biology, 2020).

B1: recombinant C-term portion of OPN (aa 168-314) (domain or fragment)
chain: not shown
notes: Osteopontin, C-terminal thrombin-generated fragment, aa 168-314; also called OPN-C; OPN-C terminal; source: recombinant
B2: soluble recombinant ICOSL-Fc (Fc fusion, UniProt O75144 19-256, looked up)
chain: DTQEKEVRAMVGSDVELSCACPEGSRFDLNDVYVYWQTSESKTVVTYHIPQNSSLENVDSRYRNRALMSPAGMLRGDFSLRLFNVTPQDEQKFHCLVLSQSLGFQEVLSVEVTLHVAANFSVPVVSAPHSPSQDELTFTCTSINGYPRPNVYWINKTDNSLLDQALQNDTVFLNMRGLYDVVSVLRIARTPSVNIGCCIENVLLQQNLTVGSQTGNDIGERDKITENPVSTGEKNAAT
notes: also called B7-H2; CD275; source: bought: Bio-Techne / R&D
B3: recombinant N-term portion of OPN (aa 17-167) (domain or fragment)
chain: not shown
notes: Osteopontin, N-terminal thrombin-generated fragment, aa 17-167; also called OPN-N; OPN-N terminal; source: recombinant

Experiments:
Experiment in all cases: ELISA; OPN preparation (60 nM in PBS) coated on MaxiSorp plates; ICOSL-Fc titrated from 60 nM to 1.8 nM in PBS + 0.05% Tween-20, 1 h at 25 C, with or without 60 nM ICOS-Fc, or ICOS-Fc alone; detected with HRP anti-human-IgG1
Details in all cases: both partners purified
[1] = biological target: B2
[2] = biological target: T1, full-length OPN (OPN-a) produced in an eukaryotic system ( (human or mouse cDNA cloned), UniProt P10451-1 17-314)
T1 construct: Osteopontin, full-length form OPN-a; Secreted into the supernatant, so the signal peptide is probably absent (surmise); also called OPN-FL; home-made OPN-FL; source: CHO cells, stably transfected (pUCOE vector), purified from supernatant on nickel-nitrilotriacetic agarose
T1 sequence (P10451 17-314): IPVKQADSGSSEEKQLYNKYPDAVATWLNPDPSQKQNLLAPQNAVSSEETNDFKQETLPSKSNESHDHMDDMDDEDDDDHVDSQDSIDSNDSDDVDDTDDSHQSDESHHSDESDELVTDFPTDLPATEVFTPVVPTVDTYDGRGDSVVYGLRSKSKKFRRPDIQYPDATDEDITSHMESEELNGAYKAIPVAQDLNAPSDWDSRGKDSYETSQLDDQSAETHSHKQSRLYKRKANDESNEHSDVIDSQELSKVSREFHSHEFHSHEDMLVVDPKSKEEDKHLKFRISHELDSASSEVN

[3] = biological target: T2, GST-OPN fusion protein (human OPNa) produced in E. coli (human, UniProt P10451-1 17-314)
T2 construct: human Osteopontin OPNa; also called OPN-GST; huGST-OPN; source: E. coli BL21 (DE3), purified (Glutathione Sepharose)
T2 sequence (P10451 17-314): as above

Row | Binder | binding result [1] | binding result [2] | binding result [3]
1 | B1 | binds |  | 
2 | B2 |  | binds | binds
3 | B3 | binds |  | 
